# Test results taken from PMC2704562 (Biochimica et biophysica acta, 2009).
# Substrate: Nc1ncnc2c1ncn2[C@@H]1O[C@H](COP(=O)(O)OP(=O)(O)OP(=O)(O)O)[C@@H](O)[C@H]1O
# Assay: radiometric S-adenosylmethionine formation assay, Michaelis-Menten fit
# Type: biochemical, Methanocaldococcus jannaschii
# Conditions: 0.5 mM [methyl-14C]-L-methionine, ATP 0.05-2.5 mM, 55 °C
Protein,Km [µM],kcat [s⁻¹]
"Mj-MAT W387F (enzyme, Methanococcus jannaschii, UniProt Q58605 1-406, looked up) MRNIIVKKLDVEPIEERPTEIVERKGLGHPDSICDGIAESVSRALCKMYMEKFGTILHHNTDQVELVGGHAYPKFGGGVMVSPIYILLSGRATMEILDKEKNEVIKLPVGTTAVKAAKEYLKKVLRNVDVDKDVIIDCRIGQGSMDLVDVFERQKNEVPLANDTSFGVGYAPLSTTERLVLETERFLNSDELKNEIPAVGEDIKVMGLREGKKITLTIAMAVVDRYVKNIEEYKEVIEKVRKKVEDLAKKIADGYEVEIHINTADDYERESVYLTVTGTSAEMGDDGSVGRGNRVNGLITPFRPMSMEAASGKNPVNHVGKIYNILANLIANDIAKLEGVKECYVRILSQIGKPINEPKALDIEIITEDSYDIKDIEPKAKEIANKFLDNIMEVQKMIVEGKVTTF",110 ± 30,1.85 ± 0.08
"Mj-MAT W387F-Y72W (enzyme, Methanococcus jannaschii, UniProt Q58605 1-406, looked up) MRNIIVKKLDVEPIEERPTEIVERKGLGHPDSICDGIAESVSRALCKMYMEKFGTILHHNTDQVELVGGHAWPKFGGGVMVSPIYILLSGRATMEILDKEKNEVIKLPVGTTAVKAAKEYLKKVLRNVDVDKDVIIDCRIGQGSMDLVDVFERQKNEVPLANDTSFGVGYAPLSTTERLVLETERFLNSDELKNEIPAVGEDIKVMGLREGKKITLTIAMAVVDRYVKNIEEYKEVIEKVRKKVEDLAKKIADGYEVEIHINTADDYERESVYLTVTGTSAEMGDDGSVGRGNRVNGLITPFRPMSMEAASGKNPVNHVGKIYNILANLIANDIAKLEGVKECYVRILSQIGKPINEPKALDIEIITEDSYDIKDIEPKAKEIANKFLDNIMEVQKMIVEGKVTTF",110 ± 30,1.62 ± 0.15

# Target: the molecule itself
# Assay: AUC
# Conditions: not given
row,Protein,stoichiometry N
1,"Mj-MAT W387F (enzyme, Methanococcus jannaschii, UniProt Q58605 1-406, looked up) MRNIIVKKLDVEPIEERPTEIVERKGLGHPDSICDGIAESVSRALCKMYMEKFGTILHHNTDQVELVGGHAYPKFGGGVMVSPIYILLSGRATMEILDKEKNEVIKLPVGTTAVKAAKEYLKKVLRNVDVDKDVIIDCRIGQGSMDLVDVFERQKNEVPLANDTSFGVGYAPLSTTERLVLETERFLNSDELKNEIPAVGEDIKVMGLREGKKITLTIAMAVVDRYVKNIEEYKEVIEKVRKKVEDLAKKIADGYEVEIHINTADDYERESVYLTVTGTSAEMGDDGSVGRGNRVNGLITPFRPMSMEAASGKNPVNHVGKIYNILANLIANDIAKLEGVKECYVRILSQIGKPINEPKALDIEIITEDSYDIKDIEPKAKEIANKFLDNIMEVQKMIVEGKVTTF",2
2,"Mj-MAT W387F-Y267W (enzyme, Methanococcus jannaschii, UniProt Q58605 1-406, looked up) MRNIIVKKLDVEPIEERPTEIVERKGLGHPDSICDGIAESVSRALCKMYMEKFGTILHHNTDQVELVGGHAYPKFGGGVMVSPIYILLSGRATMEILDKEKNEVIKLPVGTTAVKAAKEYLKKVLRNVDVDKDVIIDCRIGQGSMDLVDVFERQKNEVPLANDTSFGVGYAPLSTTERLVLETERFLNSDELKNEIPAVGEDIKVMGLREGKKITLTIAMAVVDRYVKNIEEYKEVIEKVRKKVEDLAKKIADGYEVEIHINTADDWERESVYLTVTGTSAEMGDDGSVGRGNRVNGLITPFRPMSMEAASGKNPVNHVGKIYNILANLIANDIAKLEGVKECYVRILSQIGKPINEPKALDIEIITEDSYDIKDIEPKAKEIANKFLDNIMEVQKMIVEGKVTTF",2
3,"Mj-MAT W387F-Y49W (enzyme, Methanococcus jannaschii, UniProt Q58605 1-406, looked up) MRNIIVKKLDVEPIEERPTEIVERKGLGHPDSICDGIAESVSRALCKMWMEKFGTILHHNTDQVELVGGHAYPKFGGGVMVSPIYILLSGRATMEILDKEKNEVIKLPVGTTAVKAAKEYLKKVLRNVDVDKDVIIDCRIGQGSMDLVDVFERQKNEVPLANDTSFGVGYAPLSTTERLVLETERFLNSDELKNEIPAVGEDIKVMGLREGKKITLTIAMAVVDRYVKNIEEYKEVIEKVRKKVEDLAKKIADGYEVEIHINTADDYERESVYLTVTGTSAEMGDDGSVGRGNRVNGLITPFRPMSMEAASGKNPVNHVGKIYNILANLIANDIAKLEGVKECYVRILSQIGKPINEPKALDIEIITEDSYDIKDIEPKAKEIANKFLDNIMEVQKMIVEGKVTTF",2
4,"Mj-MAT W387F-Y323W (enzyme, Methanococcus jannaschii, UniProt Q58605 1-406, looked up) MRNIIVKKLDVEPIEERPTEIVERKGLGHPDSICDGIAESVSRALCKMYMEKFGTILHHNTDQVELVGGHAYPKFGGGVMVSPIYILLSGRATMEILDKEKNEVIKLPVGTTAVKAAKEYLKKVLRNVDVDKDVIIDCRIGQGSMDLVDVFERQKNEVPLANDTSFGVGYAPLSTTERLVLETERFLNSDELKNEIPAVGEDIKVMGLREGKKITLTIAMAVVDRYVKNIEEYKEVIEKVRKKVEDLAKKIADGYEVEIHINTADDYERESVYLTVTGTSAEMGDDGSVGRGNRVNGLITPFRPMSMEAASGKNPVNHVGKIWNILANLIANDIAKLEGVKECYVRILSQIGKPINEPKALDIEIITEDSYDIKDIEPKAKEIANKFLDNIMEVQKMIVEGKVTTF",2
5,"Mj-MAT W387F-Y344W (enzyme, Methanococcus jannaschii, UniProt Q58605 1-406, looked up) MRNIIVKKLDVEPIEERPTEIVERKGLGHPDSICDGIAESVSRALCKMYMEKFGTILHHNTDQVELVGGHAYPKFGGGVMVSPIYILLSGRATMEILDKEKNEVIKLPVGTTAVKAAKEYLKKVLRNVDVDKDVIIDCRIGQGSMDLVDVFERQKNEVPLANDTSFGVGYAPLSTTERLVLETERFLNSDELKNEIPAVGEDIKVMGLREGKKITLTIAMAVVDRYVKNIEEYKEVIEKVRKKVEDLAKKIADGYEVEIHINTADDYERESVYLTVTGTSAEMGDDGSVGRGNRVNGLITPFRPMSMEAASGKNPVNHVGKIYNILANLIANDIAKLEGVKECWVRILSQIGKPINEPKALDIEIITEDSYDIKDIEPKAKEIANKFLDNIMEVQKMIVEGKVTTF",2
6,"Mj-MAT W387F-Y371W (enzyme, Methanococcus jannaschii, UniProt Q58605 1-406, looked up) MRNIIVKKLDVEPIEERPTEIVERKGLGHPDSICDGIAESVSRALCKMYMEKFGTILHHNTDQVELVGGHAYPKFGGGVMVSPIYILLSGRATMEILDKEKNEVIKLPVGTTAVKAAKEYLKKVLRNVDVDKDVIIDCRIGQGSMDLVDVFERQKNEVPLANDTSFGVGYAPLSTTERLVLETERFLNSDELKNEIPAVGEDIKVMGLREGKKITLTIAMAVVDRYVKNIEEYKEVIEKVRKKVEDLAKKIADGYEVEIHINTADDYERESVYLTVTGTSAEMGDDGSVGRGNRVNGLITPFRPMSMEAASGKNPVNHVGKIYNILANLIANDIAKLEGVKECYVRILSQIGKPINEPKALDIEIITEDSWDIKDIEPKAKEIANKFLDNIMEVQKMIVEGKVTTF",2
7,"Mj-MAT W387F-Y273W (enzyme, Methanococcus jannaschii, UniProt Q58605 1-406, looked up) MRNIIVKKLDVEPIEERPTEIVERKGLGHPDSICDGIAESVSRALCKMYMEKFGTILHHNTDQVELVGGHAYPKFGGGVMVSPIYILLSGRATMEILDKEKNEVIKLPVGTTAVKAAKEYLKKVLRNVDVDKDVIIDCRIGQGSMDLVDVFERQKNEVPLANDTSFGVGYAPLSTTERLVLETERFLNSDELKNEIPAVGEDIKVMGLREGKKITLTIAMAVVDRYVKNIEEYKEVIEKVRKKVEDLAKKIADGYEVEIHINTADDYERESVWLTVTGTSAEMGDDGSVGRGNRVNGLITPFRPMSMEAASGKNPVNHVGKIYNILANLIANDIAKLEGVKECYVRILSQIGKPINEPKALDIEIITEDSYDIKDIEPKAKEIANKFLDNIMEVQKMIVEGKVTTF",2
8,"Mj-MAT W387F-Y85W (enzyme, Methanococcus jannaschii, UniProt Q58605 1-406, looked up) MRNIIVKKLDVEPIEERPTEIVERKGLGHPDSICDGIAESVSRALCKMYMEKFGTILHHNTDQVELVGGHAYPKFGGGVMVSPIWILLSGRATMEILDKEKNEVIKLPVGTTAVKAAKEYLKKVLRNVDVDKDVIIDCRIGQGSMDLVDVFERQKNEVPLANDTSFGVGYAPLSTTERLVLETERFLNSDELKNEIPAVGEDIKVMGLREGKKITLTIAMAVVDRYVKNIEEYKEVIEKVRKKVEDLAKKIADGYEVEIHINTADDYERESVYLTVTGTSAEMGDDGSVGRGNRVNGLITPFRPMSMEAASGKNPVNHVGKIYNILANLIANDIAKLEGVKECYVRILSQIGKPINEPKALDIEIITEDSYDIKDIEPKAKEIANKFLDNIMEVQKMIVEGKVTTF",2
9,"Mj-MAT W387F-Y226W (enzyme, Methanococcus jannaschii, UniProt Q58605 1-406, looked up) MRNIIVKKLDVEPIEERPTEIVERKGLGHPDSICDGIAESVSRALCKMYMEKFGTILHHNTDQVELVGGHAYPKFGGGVMVSPIYILLSGRATMEILDKEKNEVIKLPVGTTAVKAAKEYLKKVLRNVDVDKDVIIDCRIGQGSMDLVDVFERQKNEVPLANDTSFGVGYAPLSTTERLVLETERFLNSDELKNEIPAVGEDIKVMGLREGKKITLTIAMAVVDRWVKNIEEYKEVIEKVRKKVEDLAKKIADGYEVEIHINTADDYERESVYLTVTGTSAEMGDDGSVGRGNRVNGLITPFRPMSMEAASGKNPVNHVGKIYNILANLIANDIAKLEGVKECYVRILSQIGKPINEPKALDIEIITEDSYDIKDIEPKAKEIANKFLDNIMEVQKMIVEGKVTTF",2
10,"Mj-MAT W387F-Y255W (enzyme, Methanococcus jannaschii, UniProt Q58605 1-406, looked up) MRNIIVKKLDVEPIEERPTEIVERKGLGHPDSICDGIAESVSRALCKMYMEKFGTILHHNTDQVELVGGHAYPKFGGGVMVSPIYILLSGRATMEILDKEKNEVIKLPVGTTAVKAAKEYLKKVLRNVDVDKDVIIDCRIGQGSMDLVDVFERQKNEVPLANDTSFGVGYAPLSTTERLVLETERFLNSDELKNEIPAVGEDIKVMGLREGKKITLTIAMAVVDRYVKNIEEYKEVIEKVRKKVEDLAKKIADGWEVEIHINTADDYERESVYLTVTGTSAEMGDDGSVGRGNRVNGLITPFRPMSMEAASGKNPVNHVGKIYNILANLIANDIAKLEGVKECYVRILSQIGKPINEPKALDIEIITEDSYDIKDIEPKAKEIANKFLDNIMEVQKMIVEGKVTTF",2
11,"Mj-MAT W387F-Y72W (enzyme, Methanococcus jannaschii, UniProt Q58605 1-406, looked up) MRNIIVKKLDVEPIEERPTEIVERKGLGHPDSICDGIAESVSRALCKMYMEKFGTILHHNTDQVELVGGHAWPKFGGGVMVSPIYILLSGRATMEILDKEKNEVIKLPVGTTAVKAAKEYLKKVLRNVDVDKDVIIDCRIGQGSMDLVDVFERQKNEVPLANDTSFGVGYAPLSTTERLVLETERFLNSDELKNEIPAVGEDIKVMGLREGKKITLTIAMAVVDRYVKNIEEYKEVIEKVRKKVEDLAKKIADGYEVEIHINTADDYERESVYLTVTGTSAEMGDDGSVGRGNRVNGLITPFRPMSMEAASGKNPVNHVGKIYNILANLIANDIAKLEGVKECYVRILSQIGKPINEPKALDIEIITEDSYDIKDIEPKAKEIANKFLDNIMEVQKMIVEGKVTTF",2
12,"Mj-MAT W387F-Y120W (enzyme, Methanococcus jannaschii, UniProt Q58605 1-406, looked up) MRNIIVKKLDVEPIEERPTEIVERKGLGHPDSICDGIAESVSRALCKMYMEKFGTILHHNTDQVELVGGHAYPKFGGGVMVSPIYILLSGRATMEILDKEKNEVIKLPVGTTAVKAAKEWLKKVLRNVDVDKDVIIDCRIGQGSMDLVDVFERQKNEVPLANDTSFGVGYAPLSTTERLVLETERFLNSDELKNEIPAVGEDIKVMGLREGKKITLTIAMAVVDRYVKNIEEYKEVIEKVRKKVEDLAKKIADGYEVEIHINTADDYERESVYLTVTGTSAEMGDDGSVGRGNRVNGLITPFRPMSMEAASGKNPVNHVGKIYNILANLIANDIAKLEGVKECYVRILSQIGKPINEPKALDIEIITEDSYDIKDIEPKAKEIANKFLDNIMEVQKMIVEGKVTTF",2
13,"Mj-MAT W387F-Y233W (enzyme, Methanococcus jannaschii, UniProt Q58605 1-406, looked up) MRNIIVKKLDVEPIEERPTEIVERKGLGHPDSICDGIAESVSRALCKMYMEKFGTILHHNTDQVELVGGHAYPKFGGGVMVSPIYILLSGRATMEILDKEKNEVIKLPVGTTAVKAAKEYLKKVLRNVDVDKDVIIDCRIGQGSMDLVDVFERQKNEVPLANDTSFGVGYAPLSTTERLVLETERFLNSDELKNEIPAVGEDIKVMGLREGKKITLTIAMAVVDRYVKNIEEWKEVIEKVRKKVEDLAKKIADGYEVEIHINTADDYERESVYLTVTGTSAEMGDDGSVGRGNRVNGLITPFRPMSMEAASGKNPVNHVGKIYNILANLIANDIAKLEGVKECYVRILSQIGKPINEPKALDIEIITEDSYDIKDIEPKAKEIANKFLDNIMEVQKMIVEGKVTTF",2
